# Assay results reported in paper PMC4424398, “A Human Platelet Receptor Protein Microarray Identifies the High Affinity Immunoglobulin E Receptor Subunit α (FcεR1α) as an Activating Platelet Endothelium Aggregation Receptor 1 (PEAR1) Ligand* ^([image sbox.jpg])” (Molecular & Cellular Proteomics : MCP, 2015).
# B1: FcεR1α-Cd4-His6, purified monomeric soluble protein (receptor, human, UniProt P12319 26-205, looked up)
# chain: VPQKPKVSLNPPWNRIFKGENVTLTCNGNNFFEVSSTKWFHNGSLSEETNSSLNIVNAKFEDSGEYKCQHQQVNESEPVYLEVFSDWLLLQASAEVVMEGQPLFLRCHGWRNWDVYKVIYYKDGEALKYWYENHNISITNATVEDSGTYYCTGKVWQLDYESEPLNITVIKAPREKYWLQ
# notes: also called soluble FcεR1α-Cd4-His6; source: HEK293E, transient transfection, purified (His6), resolved by gel filtration just prior to use
# Columns and labels:
# [1] = molecular target: T1, PEAR1 ectodomain, monomeric biotinylated bait (human, UniProt Q5VY43 21-755, biotin (on the biotinylatable peptide tag)); assay: SPR; kinetic analysis
# T1 chain: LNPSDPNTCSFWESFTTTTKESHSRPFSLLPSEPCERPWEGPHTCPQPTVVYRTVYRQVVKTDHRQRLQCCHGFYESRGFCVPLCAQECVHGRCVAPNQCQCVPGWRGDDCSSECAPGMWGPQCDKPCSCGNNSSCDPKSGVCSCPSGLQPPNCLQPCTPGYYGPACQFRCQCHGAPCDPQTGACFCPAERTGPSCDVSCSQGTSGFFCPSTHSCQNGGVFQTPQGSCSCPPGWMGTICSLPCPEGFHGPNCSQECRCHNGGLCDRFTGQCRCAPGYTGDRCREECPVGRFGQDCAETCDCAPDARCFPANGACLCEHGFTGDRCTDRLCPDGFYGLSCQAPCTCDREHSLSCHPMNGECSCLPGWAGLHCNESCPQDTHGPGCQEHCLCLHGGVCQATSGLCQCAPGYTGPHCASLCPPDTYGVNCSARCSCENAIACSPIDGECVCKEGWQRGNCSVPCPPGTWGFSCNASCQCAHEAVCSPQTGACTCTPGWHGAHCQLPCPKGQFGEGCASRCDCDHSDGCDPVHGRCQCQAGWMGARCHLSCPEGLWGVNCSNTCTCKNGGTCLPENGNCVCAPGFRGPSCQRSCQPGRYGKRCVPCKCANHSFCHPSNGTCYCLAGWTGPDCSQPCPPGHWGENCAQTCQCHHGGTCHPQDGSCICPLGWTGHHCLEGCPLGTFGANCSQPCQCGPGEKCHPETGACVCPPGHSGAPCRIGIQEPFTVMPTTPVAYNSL
# [2] = molecular target: T2, PEAR1 ectodomain, monomeric biotinylated bait (human, UniProt Q5VY43 21-755, biotin (on the biotinylatable peptide tag)); assay: SPR; Biacore T100; PEAR1 immobilised; seven serial dilutions of FcεR1α-Cd4-His6 injected at 100 μl/min; kinetic analysis, 1:1 binding model; conditions: both partners purified
# T2 construct: human platelet endothelium aggregation receptor 1 (PEAR1), whole ectodomain; also called PEAR1 bait; immobilized PEAR1; source: HEK293E, transient transfection, purified (Ni2+-NTA via His6)
# T2 sequence (looked up): T1 chain
# [3] = molecular target: T2, PEAR1 ectodomain, monomeric …; assay: SPR; Biacore T100; PEAR1 immobilised; gel-filtered monomeric FcεR1α-Cd4-His6 serially diluted and injected at 10 μl/min until equilibrium; reference-subtracted; equilibrium analysis; conditions: both partners purified
binder,measurement,setting,value
B1,koff,[1],0.0788 s⁻¹
same,stoichiometry N,[2],1
same,Kd,[3],27.4 ± 1.3 nM
